According to patent publication US8263074B2, “Fibroblast growth factor receptor-1 inhibitors and methods of treatment thereof” (ImClone LLC, priority 2003, dated 2012):

Experiments:
[1] = Body weight in C57 black mice; type: in vivo; details: after 4 treatments
Method: The antibodies weight-reducing effects on other strains of mice, C57 black mice and db/db mice were tested (The Jackson Laboratory, Bar Harbor, Me.). The C57 mice were injected with 0.8 mg/kg, 4 mg/kg, and 40 mg/kg antibody and saline on a Monday, Wednesday, Friday, and following Monday rotation schedule with body weights being measured before each injection and on day 9.

FGFR-2c = target: T1, FGFR-2c (Homo sapiens, UniProt P21802); assay: BiaCore binding kinetics; details: BiaCore kinetic analysis
T1 construct: purchased R&D Systems

[2] = test system: Human umbilical vascular endothelial cells (HUVECs); assay: HUVEC proliferation assay (3H-thymidine); type: cell-based; details: 3H-thymidine incorporation
Method: Human umbilical vascular endothelial cells (HUVECs) were seeded in 96-well tissue culture plates at a concentration of 5×10^4 cells/ml. After attachment, cells were quiesced in EMG-2 medium lacking EGF, VEGF and FGF-2 (Cambrex, East Rutherford, N.J.) for 24 hrs. Quiescent media in wells were aspirated and replaced with EMG-2 that contained all the growth factors mentioned above. Antibodies were serially diluted and added to the wells. Cells were incubated at 37° C. with 5% CO2 in a Muaire™ DH autoflow incubator (Cryostar Industries, Inc., White Hall, Pa.) for 48-72 hrs. Cell growth was determined by monitoring ^3H-thymidine incorporation using a 1450 Micorbeta liquid scintillation counter (Perkin Elmer, Gaithersburg, Md.).

[3] = Repeated-dose study in female athymic nude mice: body weight, food intake, rearing, blood glucose; type: in vivo
Method: Female athymic nude mice (Cr1:NU/NU-nuBR, Charles River Laboratories, Wilmington, Mass.) were housed 4-5 per cage. Mice were given autoclaved food (Lab Diet #5001, PMI Feeds Inc., St. Louis, Mo.) and water ad libitum. All animal use in this study was conducted in compliance with approved institutional animal care and use protocols, and according to NIH guidelines (Guide for the Care and Use of Laboratory Animals, NIH publication no. 86-23, 1985).
In one assay, mice were injected intraperitoneally (i.p.) with FR1-H7 at 0.19, 1.9, and 19 mg/kg body weight (n=5 per group). In another assay, mice were injected subcutaneously (s.c.) with the antibody, at 0.4, 4, and 40 mg/kg body weight. In control arms, mice were treated with saline i.p. or s.c. In addition, one group of mice was left untreated (n=4). All treatments were given at a volume of 10 μl/g body weight in Saline. Treatments were started on a Wednesday (Day 0) with additional treatments on the following Friday, Monday, Wednesday, and Friday. After this 9-day treatment period mice received no additional treatments.
Alternatively, female athymic nude mice were injected (i.p.) with saline, 2 mg/kg, or 20 mg/kg FR1-A1 on a Monday (Day 0) and Wednesday. Body weights were measured before the first injection, and on Day 2 and Day 5. Food intake per group was measured 2 days after the first injection.
The body weights of all animals were measured 3 times/week. Food consumption, behavior, and serum glucose were evaluated as follows. Food Intake Measurement: Prior to the treatment on Day 2 mice were placed in a new cage and the weight of the food container in the cage top was weighed. Prior to the treatment on Day 5 the weight of the food container was measured again. The difference in the Day 2 to Day 5 food container weight was divided by the number of mice per cage and the number of days between the measurements to give a food intake per mouse per 24 hrs. Activity Measurement: On Day 12, 3 days after the final treatment, mice were placed individually into a new cage and the number of rearings was counted over a 1 min period. Blood Glucose Measurement On Day 16, 7 days after the final treatment, non-fasted blood glucose was measured in blood collected from the tip of the tail using an Ascensia Elite XL blood glucose meter (glucose oxidase method, Bayer, Pittsburg, Pa.).

FGFR-1(IIIc) = FGFR-1(IIIc) (Homo sapiens, UniProt P11362); assay: Cell-based blocking assay (125I-FGF-2 binding to FGFR-1(IIIc) expressing L6 cells); set-up: expressed in transfected cells; host or cells: L6 (ATCC), pBABE retroviral vector; details: at 200 nM antibody
Method: An FGFR-1(IIIc) expressing cell line was constructed by retro-viral transfecting L6 (ATCC, Manassas, Va.) using a pBABE vector that has a puromycin resistant gene (Invitrogen). Transfected cells were cultured in 10% FBS, DMEM (Invitrogen) in 6-well tissue culture plates until reaching confluency, Before the blocking experiment, cells were serum starved for 8-24 hrs at 37° C. in DMEM medium that contains 0.1% FBS and 5 μg/ml heparin. Before the addition of any reagents, plates were put on ice for 1 hr to minimize receptor internalization. For binding experiment, iodinated recombinant FGF-2 was added at various concentrations to the wells of the plates. For blocking experiments, serially diluted FR1-H7 antibody was added and incubated with the cells on ice for 1 hr before iodinated recombinant FGF-2 was added to each well to a final concentration of 15 ng/ml. Binding was for 1 hr at 0-4° C., after which time the solutions were aspirated and the plates were washed 5 times with ice-cold PBS. Cells were lyzed with 0.5 ml ice-cold cell lysis buffer for 30 minutes. Radioactivity of the cell lysates was detected using a Wizard 1470 automatic gamma counter (Turku, Finland). Non-specific interaction was determined in a binding experiment in which iodinated FGF-2 was incubated with the cells in presence of 200 fold excess of cold ligand.

Sequence of FGFR-1(IIIc) (P11362 22-822): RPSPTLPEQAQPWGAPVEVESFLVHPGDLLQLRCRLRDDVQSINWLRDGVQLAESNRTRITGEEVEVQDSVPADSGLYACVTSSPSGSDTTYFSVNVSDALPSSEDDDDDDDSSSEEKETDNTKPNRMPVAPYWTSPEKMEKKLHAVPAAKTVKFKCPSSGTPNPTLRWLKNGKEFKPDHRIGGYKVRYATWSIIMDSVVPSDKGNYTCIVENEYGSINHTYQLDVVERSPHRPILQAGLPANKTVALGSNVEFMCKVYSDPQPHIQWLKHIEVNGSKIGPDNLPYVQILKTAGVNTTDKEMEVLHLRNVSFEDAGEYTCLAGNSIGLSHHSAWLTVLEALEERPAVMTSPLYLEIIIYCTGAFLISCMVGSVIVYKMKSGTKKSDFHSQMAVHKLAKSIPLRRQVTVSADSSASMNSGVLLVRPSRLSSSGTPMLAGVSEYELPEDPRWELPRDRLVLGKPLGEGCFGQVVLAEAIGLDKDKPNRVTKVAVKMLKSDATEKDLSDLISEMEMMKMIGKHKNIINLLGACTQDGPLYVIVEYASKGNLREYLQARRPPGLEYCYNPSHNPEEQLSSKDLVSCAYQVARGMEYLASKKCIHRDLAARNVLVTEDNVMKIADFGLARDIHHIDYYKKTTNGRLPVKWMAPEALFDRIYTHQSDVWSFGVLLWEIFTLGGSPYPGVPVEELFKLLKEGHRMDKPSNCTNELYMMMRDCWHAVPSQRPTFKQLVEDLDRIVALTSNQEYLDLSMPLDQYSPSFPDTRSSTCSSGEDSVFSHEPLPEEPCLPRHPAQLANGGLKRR
T1 sequence (P21802 22-821): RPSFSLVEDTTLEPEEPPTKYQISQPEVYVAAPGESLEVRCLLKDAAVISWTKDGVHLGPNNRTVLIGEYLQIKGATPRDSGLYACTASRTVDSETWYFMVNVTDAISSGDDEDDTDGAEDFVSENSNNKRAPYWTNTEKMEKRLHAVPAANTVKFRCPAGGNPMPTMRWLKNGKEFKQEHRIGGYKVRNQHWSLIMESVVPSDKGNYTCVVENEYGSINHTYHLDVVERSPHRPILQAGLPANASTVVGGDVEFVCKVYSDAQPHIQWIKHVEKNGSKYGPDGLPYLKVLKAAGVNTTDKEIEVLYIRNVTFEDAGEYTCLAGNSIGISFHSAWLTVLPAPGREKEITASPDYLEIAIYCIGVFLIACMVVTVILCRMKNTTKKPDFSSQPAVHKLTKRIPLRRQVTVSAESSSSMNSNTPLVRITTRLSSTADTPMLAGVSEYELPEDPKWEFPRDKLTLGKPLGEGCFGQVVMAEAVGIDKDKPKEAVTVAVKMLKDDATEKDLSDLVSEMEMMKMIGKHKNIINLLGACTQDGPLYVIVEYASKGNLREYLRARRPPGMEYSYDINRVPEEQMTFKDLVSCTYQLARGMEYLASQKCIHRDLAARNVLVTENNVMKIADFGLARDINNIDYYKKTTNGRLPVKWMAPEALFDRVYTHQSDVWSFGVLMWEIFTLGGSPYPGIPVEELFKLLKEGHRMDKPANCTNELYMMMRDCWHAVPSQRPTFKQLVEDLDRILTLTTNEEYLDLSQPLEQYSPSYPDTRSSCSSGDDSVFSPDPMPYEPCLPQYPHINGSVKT

B1: FR1-H7: human monoclonal antibody from phage Fab library, specific for FGFR-1(IIIb) and/or FGFR-1(IIIc), and/or FGFR-4(IIIc); VH/VL SEQ ID NOS:7, 8 (antibody, listed as Homo sapiens)
VH: MAEVQLVQSGAEVKKPGASVKVSCKVSGYTFTDYYMHWVQQAPGKGLEWMGLVDPEDGETIYAEKFQGRVTITADTSTDTAYMELSSLRSEDTAVYYCARDDYMDVWGKGTLVTVSSASTKGP
VL: LETTLTQSPDTLSLSPGEGATLSCRASQSVSGSALAWYQQKPGQAPRLLIYDASSRATGVPDRFSGSGSGADFSLTISRLEPEDFAVYSCQQYGSSPLTFGPGTKVDVKRTVAAPSVFIFPPSDEQLKSGTASVVCLLNNFYPREAKVQWKVD
For B1, the “weight reduction compared to the starting weights” value (shortened to “weight reduction”) ([1]; 0.8 mg/kg) was “approximately 5%”, the “weight reduction” value ([1]; 4 mg/kg) was about 16% and the “weight reduction” value ([1]; 40 mg/kg) was about 16%. The Kd (FGFR-2c) was over 1000 nM, the “proliferation of HUVECs in vitro” value [2] was “inhibited the proliferation of HUVECs in vitro in a dose-dependant manner” and the “moderate weight loss continued one week after treatment was stopped” value ([3]; 1.9 mg/kg) was about 0.5 g. The “time to complete weight recovery after treatment was stopped” value ([3]; 1.9 mg/kg) was 25 days, the “weight loss of the total body weight” value ([3]; 1.9 mg/kg i.p., within the first 3 treatments) was about 20% and the “lagging time of first significant weight gain after stop of treatments” value ([3]; 4 mg/kg s.c.) was 14 days. The “unusual weight loss of the total body weight, one animal euthanized” value ([3]; 19 mg/kg group) was about 50%, the “lagging time of first significant weight gain after stop of treatments” value ([3]; 19 mg/kg i.p.) was 24 days and the “reduction of non-fasting blood glucose as fraction of the normal glucose level” value ([3]; 19 mg/kg i.p. and 40 mg/kg s.c. groups, one week after end of treatment) was “⅓”. The “lagging time of first significant weight gain after stop of treatments” value ([3]; 40 mg/kg s.c.) was 19 days, the “exploratory behavior (rearings per min in a novel environment)” value ([3]; Day 12) was “not significantly altered” and the “maximal weight loss as fraction of the averaged body weight of the controls” value ([3]; dosage higher than 4 mg/kg) was “⅓”. For the same molecule, the “reduction of non-fasting food intake” value ([3]; groups that lost weight, between second and third treatment) was “approximately 35%”, the body weight change ([3]; two lowest dosages 0.19 and 0.4 mg/kg) was “slight weight gains” and the “blocking of specific 125I-FGF-2 binding to the cells” value (FGFR-1(IIIc)) was “near completion”.
